# Measurements taken from IntAct's records for PubMed 18583962.
# B1: LIM domain-binding protein 1 (Mus musculus), P70662 (parent)
# chain: MSVGCACPGCSSKSFKLYSPKEPPNGNAFPPFHPGTMLDRDVGPTPMYPPTYLEPGIGRHTPYGNQTDYRIFELNKRLQNWTEECDNLWWDAFTTEFFEDDAMLTITFCLEDGPKRYTIGRTLIPRYFRSIFEGGATELYYVLKHPKEAFHSNFVSLDCDQGSMVTQHGKPMFTQVCVEGRLYLEFMFDDMMRIKTWHFSIRQHRELIPRSILAMHAQDPQMLDQLSKNITRCGLSNSTLNYLRLCVILEPMQELMSRHKTYSLSPRDCLKTCLFQKWQRMVAPPAEPARQQPSKRRKRKMSGGSTMSSGGGNTNNSNSKKKSPASTFALSSQVPDVMVVGEPTLMGGEFGDEDERLITRLENTQFDAANGIDDEDSFNNSPALGANSPWNSKPPSSQESKSENPTSQASQ
# partner: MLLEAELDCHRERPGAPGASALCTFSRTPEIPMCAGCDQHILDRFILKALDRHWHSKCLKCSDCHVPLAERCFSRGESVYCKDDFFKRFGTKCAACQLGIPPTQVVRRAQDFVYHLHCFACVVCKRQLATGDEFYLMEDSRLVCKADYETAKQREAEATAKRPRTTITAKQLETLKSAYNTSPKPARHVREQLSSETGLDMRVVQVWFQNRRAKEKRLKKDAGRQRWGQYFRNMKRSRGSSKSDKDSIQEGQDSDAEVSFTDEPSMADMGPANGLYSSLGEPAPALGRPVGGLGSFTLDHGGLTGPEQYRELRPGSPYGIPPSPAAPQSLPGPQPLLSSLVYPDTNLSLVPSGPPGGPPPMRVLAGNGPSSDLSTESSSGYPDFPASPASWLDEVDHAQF
# B2: Insulin gene enhancer protein ISL-1 (Mus musculus), P61372 (parent)
# chain: MGDMGDPPKKKRLISLCVGCGNQIHDQYILRVSPDLEWHAACLKCAECNQYLDESCTCFVRDGKTYCKRDYIRLYGIKCAKCSIGFSKNDFVMRARSKVYHIECFRCVACSRQLIPGDEFALREDGLFCRADHDVVERASLGAGDPLSPLHPARPLQMAAEPISARQPALRPHVHKQPEKTTRVRTVLNEKQLHTLRTCYAANPRPDALMKEQLVEMTGLSPRVIRVWFQNKRCKDKKRSIMMKQLQQQQPNDKTNIQGMTGTPMVAASPERHDGGLQANPVEVQSYQPPWKVLSDFALQSDIDQPAFQQLVNFSEGGPGSNSTGSEVASMSSQLPDTPNSMVASPIEA
# partner: B1 partner
# Variants of: B1
# Details: with lhx3_mouse Lhx3, P50481
row,Variant,effect of a mutation on the interaction
1,MSVGCACPGCSSKSFKLYSPKEPPNGNAFPPFHPGTMLDRDVGPTPMYPPTYLEPGIGRHTPYGNQTDYRIFELNKRLQNWTEECDNLWWDAFTTEFFEDDAMLTITFCLEDGPKRYTIGRTLIPRYFRSIFEGGATELYYVLKHPKEAFHSNFVSLDCDQGSMVTQHGKPMFTQVCVEGRLYLEFMFDDMMRIKTWHFSIRQHRELIPRSILAMHAQDPQMLDQLSKNITRCGLSNSTLNYLRLCVILEPMQELMSRHKTYSLSPRDCLKTCLFQKWQRMVAPPAEPARQQPSKRRKRKMSGGSTMSSGGGNTNNSNSKKKSPASTFALSSQVPDVMVVGEPTLMGGEFGDEDERLATRLENTQFDAANGIDDEDSFNNSPALGANSPWNSKPPSSQESKSENPTSQASQ [I358A],disrupting interaction

# Variants of: B1
# Details: with lhx3_mouse Lhx3, P50481
# Remark: another data set of the same source
row,Variant,effect of a mutation on the interaction
1,MSVGCACPGCSSKSFKLYSPKEPPNGNAFPPFHPGTMLDRDVGPTPMYPPTYLEPGIGRHTPYGNQTDYRIFELNKRLQNWTEECDNLWWDAFTTEFFEDDAMLTITFCLEDGPKRYTIGRTLIPRYFRSIFEGGATELYYVLKHPKEAFHSNFVSLDCDQGSMVTQHGKPMFTQVCVEGRLYLEFMFDDMMRIKTWHFSIRQHRELIPRSILAMHAQDPQMLDQLSKNITRCGLSNSTLNYLRLCVILEPMQELMSRHKTYSLSPRDCLKTCLFQKWQRMVAPPAEPARQQPSKRRKRKMSGGSTMSSGGGNTNNSNSKKKSPASTFALSSQVPDVMAVGEPTLMGGEFGDEDERLITRLENTQFDAANGIDDEDSFNNSPALGANSPWNSKPPSSQESKSENPTSQASQ [V339A],disrupting interaction

# Variants of: B2
# Details: with lhx3_mouse Lhx3, P50481
row,Variant,effect of a mutation on the interaction
1,MGDMGDPPKKKRLISLCVGCGNQIHDQYILRVSPDLEWHAACLKCAECNQYLDESCTCFVRDGKTYCKRDYIRLYGIKCAKCSIGFSKNDFVMRARSKVYHIECFRCVACSRQLIPGDEFALREDGLFCRADHDVVERASLGAGDPLSPLHPARPLQMAAEPISARQPALRPHVHKQPEKTTRVRTVLNEKQLHTLRTCYAANPRPDALMKEQLVEMTGLSPRVIRVWFQNKRCKDKKRSIMMKQLQQQQPNDKTNIQGMTGTAMVAASPERHDGGLQANPVEVQSYQPPWKVLSDFALQSDIDQPAFQQLVNFSEGGPGSNSTGSEVASMSSQLPDTPNSMVASPIEA [P264A],disrupting interaction
2,MGDMGDPPKKKRLISLCVGCGNQIHDQYILRVSPDLEWHAACLKCAECNQYLDESCTCFVRDGKTYCKRDYIRLYGIKCAKCSIGFSKNDFVMRARSKVYHIECFRCVACSRQLIPGDEFALREDGLFCRADHDVVERASLGAGDPLSPLHPARPLQMAAEPISARQPALRPHVHKQPEKTTRVRTVLNEKQLHTLRTCYAANPRPDALMKEQLVEMTGLSPRVIRVWFQNKRCKDKKRSIMMKQLQQQQPNDKTNIQGMTATPMVAASPERHDGGLQANPVEVQSYQPPWKVLSDFALQSDIDQPAFQQLVNFSEGGPGSNSTGSEVASMSSQLPDTPNSMVASPIEA [G262A],disrupting interaction
3,MGDMGDPPKKKRLISLCVGCGNQIHDQYILRVSPDLEWHAACLKCAECNQYLDESCTCFVRDGKTYCKRDYIRLYGIKCAKCSIGFSKNDFVMRARSKVYHIECFRCVACSRQLIPGDEFALREDGLFCRADHDVVERASLGAGDPLSPLHPARPLQMAAEPISARQPALRPHVHKQPEKTTRVRTVLNEKQLHTLRTCYAANPRPDALMKEQLVEMTGLSPRVIRVWFQNKRCKDKKRSIMMKQLQQQQPNDKTNIQGMTGAPMVAASPERHDGGLQANPVEVQSYQPPWKVLSDFALQSDIDQPAFQQLVNFSEGGPGSNSTGSEVASMSSQLPDTPNSMVASPIEA [T263A],disrupting interaction

# Variants of: B2
# Details: with lhx3_mouse Lhx3, P50481
# Remark: another data set of the same source
row,Variant,effect of a mutation on the interaction
1,MGDMGDPPKKKRLISLCVGCGNQIHDQYILRVSPDLEWHAACLKCAECNQYLDESCTCFVRDGKTYCKRDYIRLYGIKCAKCSIGFSKNDFVMRARSKVYHIECFRCVACSRQLIPGDEFALREDGLFCRADHDVVERASLGAGDPLSPLHPARPLQMAAEPISARQPALRPHVHKQPEKTTRVRTVLNEKQLHTLRTCYAANPRPDALMKEQLVEMTGLSPRVIRVWFQNKRCKDKKRSIMMKQLQQQQPNDKTNIQGMTGTPMVGASPERHDGGLQANPVEVQSYQPPWKVLSDFALQSDIDQPAFQQLVNFSEGGPGSNSTGSEVASMSSQLPDTPNSMVASPIEA [A267G],disrupting interaction

# Variants of: B2
# Details: with lhx3_mouse Lhx3, P50481
# Remark: another data set of the same source
row,Variant,effect of a mutation on the interaction
1,MGDMGDPPKKKRLISLCVGCGNQIHDQYILRVSPDLEWHAACLKCAECNQYLDESCTCFVRDGKTYCKRDYIRLYGIKCAKCSIGFSKNDFVMRARSKVYHIECFRCVACSRQLIPGDEFALREDGLFCRADHDVVERASLGAGDPLSPLHPARPLQMAAEPISARQPALRPHVHKQPEKTTRVRTVLNEKQLHTLRTCYAANPRPDALMKEQLVEMTGLSPRVIRVWFQNKRCKDKKRSIMMKQLQQQQPNDKTNIQGMTGTPAVAASPERHDGGLQANPVEVQSYQPPWKVLSDFALQSDIDQPAFQQLVNFSEGGPGSNSTGSEVASMSSQLPDTPNSMVASPIEA [M265A],disrupting interaction
